Laboratory results published in US9580508B2, “Bispecific EGFR/c-Met antibodies” (Janssen Biotech, Inc., priority 2012, dated 2017).
“Also recorded” adds a separate entry of the source. Like-named read-outs stand apart in the source and are kept apart here.

Experiments:
[1] = system: H292-HGF human lung cancer xenograft
Method: (§1) The H292-HGF cells were maintained in vitro in RPMI1640 medium supplemented with fetal bovine serum (10% v/v), and L-glutamine (2 mM) at 37° C. in an atmosphere of 5% CO2 in air. The cells were routinely subcultured twice weekly by trypsin-EDTA treatment. The cells growing in an exponential growth phase were harvested and counted for tumor inoculation.
(§2) Each mouse was inoculated subcutaneously at the right flank region with H292-HGF tumor cells (2×10^6) in 0.1 ml of PBS with Cultrex (1:1) for tumor development. The treatments were started when the mean tumor size reached 139 mm^3. […] The date of tumor cell inoculation was denoted as day 0.
(§3) Before commencement of treatment, all animals were weighed and the tumor volumes were measured. Since the tumor volume can affect the effectiveness of any given treatment, mice were assigned into groups using randomized block design based upon their tumor volumes. […] The randomized block design was used to assign experimental animals to groups. First, the experimental animals were divided into homogeneous blocks according to their initial tumor volume. Secondly, within each block, randomization of experimental animals to treatments was conducted.
(§4) At the time of routine monitoring, the animals were checked for any effects of tumor growth and treatments on normal behavior, such as mobility, visual estimation of food and water consumption, body weight gain/loss (body weights were measured twice weekly), eye/hair matting and any other abnormal effect.
(§5) The endpoint was whether tumor growth can be delayed or tumor bearing mice can be cured. Tumor size was measured twice weekly in two dimensions using a caliper, and the volume was expressed in mm^3 using the formula: V=0.5 a×b^2 where a and b are the long and short diameters of the tumor, respectively. The tumor size was then used for calculations of both T-C and T/C values. T-C was calculated with T as the time (in days) required for the mean tumor size of the treatment group to reach 1000 mm^3, and C was the time (in days) for the mean tumor size of the control group to reach the same size. The T/C value (in percent) was an indication of antitumor efficacy; T and C were the mean tumor volume of the treated and control groups, respectively, on a given day. Complete tumor regression (CR) is defined as tumors that are reduced to below the limit of palpation (62.5 mm^3) Partial tumor regression (PR) is defined as tumors that are reduced from initial tumor volume. A minimum duration of CR or PR in 3 or more successive tumor measurements is required for a CP or PR to be considered durable.
(§6) Animals for which the body weight loss exceeded 20%, or for which the mean tumor size of the group exceeds 2000 mm^3 were euthanized. The study was terminated after two weeks of observation after the final dose.
(§7) Statistical analyses of difference in tumor volume among the groups were evaluated using a one-way ANOVA followed by individual comparisons using Games-Howell (equal variance not assumed). All data were analyzed using SPSS 18.0. p<0.05 was considered to be statistically significant.

[2] = system: H292-HGF human lung cancer xenograft; assay: H292-HGF human lung cancer xenograft: bispecific molecule versus other EGFR and c-Met inhibitors; settings: mouse, in vivo
Method: as §1, §2, §3, §4, §5, §6, §7

[3] = system: H1975 cells expressing human HGF; assay: H1975-HGF xenograft tumor efficacy; assay type: in vivo, nude mice; settings: H1975-HGF NSCLC, day 16; mAbs 10 mg/kg BIWx3wk, erlotinib 50, afatinib 15 mg/kg QDx21d
H1975 cells = assay: H1975 xenograft tumor efficacy; assay type: in vivo, nude mice; settings: H1975 NSCLC, day 18, mAbs 10 mg/kg BIWx3wk, erlotinib 50, afatinib 15 mg/kg QDx21d
NCI-H3255 cells = assay: cells; settings: Homo sapiens, […] HGF
Method: NCI-H3255 and HCC-827 cells were plated as described above in “Inhibition of Human Tumor Cell Growth or Viability by Antibodies”. […] Some wells were left untreated with either HGF or antibodies as controls. Cells were incubated at 37° C., 5% CO2 for 72 hours, then viable cells were detected using CellTiter-Glo® reagent (Promega), and data were analyzed as described above in “Inhibition of Human Tumor Cell Growth (NCI-H292 growth and NCI-H322 growth assay)”.

EGFR = target: T1, EGFR (Homo sapiens, UniProt P00533); assay: Inhibition of EGFR phosphorylation in NCI-H441 cells; assay type: cell-based
T1 construct: endogenous in cells; host or cells: NCI-H441
Method: NCI-H292, NCI-H441, or NCI-H596 cells were plated in 96 well plates in RPMI medium containing 10% FBS. 24 hours later, medium was replaced with serum free RPMI. […] Cells were treated for 1 h with the monospecific or bispecific molecules and then stimulated with EGF, HGF, or a combination of EGF and HGF for 15 minutes at 37° C., 5% CO2. Cells were lysed with MSD Lysis Buffer and cell signaling was assessed using appropriate MSD Assay plates, according to manufacturer's instructions, as described above.

[4] = system: NCI-H292 cells expressing human HGF; assay: H292-HGF xenograft tumor efficacy with four bispecific FN3 molecules; assay type: in vivo, SCID Beige mice; settings: 25 mg/kg three times per week
Method: One week after implantation, mice were stratified into groups with equivalent tumor volumes (mean tumor volume=77.9+/−1.7 mm^3) Mice were dosed three times per week with the bispecific molecules and tumor volumes were recorded twice weekly.

[5] = mouse, in vivo, ip
Method: SCID Beige mice were subcutaneously inoculated with NCI-H292 cells expressing human HGF (2.0×10^6 cells in Cultrex (Trevigen) in a volume of 200 μL) on the dorsal flank of each animal. Tumor measurements were taken twice weekly until tumor volumes ranged between 150-250 mm^3. Mice were then given a single i.p. dose of bispecific EGFR/c-Met molecules (linked to an albumin binding domain to increase half-life) or PBS vehicle. At 6 h or 72 h after dosing, tumors were extracted and immediately frozen in liquid nitrogen. […] Tumors were weighed, cut into small pieces, and lysed in Lysing Matrix A tubes (LMA) containing RIPA buffer with HALT protease/phosphatase inhibitors (Pierce), 50 mM sodium fluoride (Sigma), 2 mM activated sodium orthovanadate (Sigma), and 1 mM PMSF (MesoScale Discovery). Lysates were removed from LMA matrix and centrifuged to remove insoluble protein. The soluble tumor protein was quantified with a BCA protein assay and diluted to equivalent protein levels in tumor lysis buffer. Phosphorylated c-Met, EGFR and ERK were measured using assay plates from MesoScale Discovery (according to Manufacturer's protocol and as described above).

## C[C@@H](Oc1cc(-c2cnn(C3CCNCC3)c2)cnc1N)c1c(Cl)ccc(F)c1Cl [crizotinib, reference compound]
[1]; day 7 (start of treatment)
  Tumor volume (mm^3): 140 ± 9 mm^3
[1]; mouse, in vivo
  Antitumor activity / response: no antitumor activity
[1]; tumor growth delay vs vehicle
  T − C (days) at 1000 mm^3: -1 days
[2]
  Tolerability / body weight loss: More severe body weight loss

## CN(C)C/C=C/C(=O)Nc1cc2c(Nc3ccc(F)c(Cl)c3)ncnc2cc1O[C@H]1CCOC1 [afatinib]
[3]
  % TGI (day of study); compared to PBS vehicle: 29 (16) %
H1975 cells
  % TGI (day of study); compared to PBS vehicle: 57 (18) %
H1975 cells; listed as Afatinib
  % TGI (day of study); compared to PBS vehicle: 57%

## C#Cc1cccc(Nc2ncnc3cc(OCCOC)c(OCCOC)cc23)c1 [erlotinib]
[3]
  % TGI (day of study); compared to PBS vehicle: 20 (16) %
NCI-H3255 cells; NCI-H3255, NCI-H3255, low attachment culture
  IC50: 47.1 nM
NCI-H3255 cells; NCI-H3255, NCI-H3255, standard 2D culture
  IC50: 122 nM
[2]
  Tolerability / body weight loss: More severe body weight loss
H1975 cells
  % TGI (day of study); compared to PBS vehicle: 9 (18) %

B1: ECB5: bispecific FN3: P53A1R5-17v2-(GGGGS)4-P114AR7P94-A3, SEQ ID NO: 54 (protein)
chain: MLPAPKNLVVSEVTEDSARLSWADPHGFYDSFLIQYQESEKVGEAIVLTVPGSERSYDLTGLKPGTEYTVSIYGVHNVYKDTNMRGLPLSAIFTTGGGGSGGGGSGGGGSGGGGSMLPAPKNLVVSRVTEDSARLSWTAPDAAFDSFWIRYFEFLGSGEAIVLTVPGSERSYDLTGLKPGTEYVVNIMGVKGGKISPPLSAIFTT
modifications: bispecific EGFR/cMet binding molecule
EGFR
  Fold decrease of IC50 for inhibition of EGFR phosphorylation, bispecific vs monospecific EGFR-binding FN3 domain: 30 fold

B2: ECB39: bispecific FN3 with albumin binding domain: P53A1R5-17v2/P114AR7P94-A3, SEQ ID NO: 121 (protein)
chain: MLPAPKNLVVSEVTEDSARLSWADPHGFYDSFLIQYQESEKVGEAIVLTVPGSERSYDLTGLKPGTEYTVSIYGVHNVYKDTNMRGLPLSAIFTTAPAPAPAPAPLPAPKNLVVSRVTEDSARLSWTAPDAAFDSFWIRYFEFLGSGEAIVLTVPGSERSYDLTGLKPGTEYVVNIMGVKGGKISPPLSAIFTTAPAPAPAPAPLAEAKVLANRELDKYGVSDYYKNLINNAKTVEGVKALLDEILAALP
modifications: Bispecific EGFR/c-Met binding molecule
[4]
  Tumor growth inhibition: showed the most efficacy
[5]
  Tumor accumulation: significantly more tumor accumulation at 6 hours relative to the other molecules

B3: ECB38: bispecific FN3 with albumin binding domain: P54AR4-83v2/P114AR7P94-A3, SEQ ID NO: 120 (protein)
chain: MLPAPKNLVVSEVTEDSARLSWDDPWAFYESFLIQYQESEKVGEAIVLTVPGSERSYDLTGLKPGTEYTVSIYGVHNVYKDTNMRGLPLSAIFTTAPAPAPAPAPLPAPKNLVVSRVTEDSARLSWTAPDAAFDSFWIRYFEFLGSGEAIVLTVPGSERSYDLTGLKPGTEYVVNIMGVKGGKISPPLSAIFTTAPAPAPAPAPLAEAKVLANRELDKYGVSDYYKNLINNAKTVEGVKALLDEILAALP
modifications: Bispecific EGFR/c-Met binding molecule
[1]; 25 mg/kg, 3 times/week×3 weeks
  Mice in which the treatment was tolerated: 7 out of 10
[1]; day 7 (start of treatment)
  Tumor volume (mm^3): 137 ± 7 mm^3
[1]; day 9
  Tumor volume (mm^3): 142 ± 7 mm^3
[1]; day 13
  Tumor volume (mm^3): 83 ± 6 mm^3
[1]; day 16
  Tumor volume (mm^3): 44 ± 7 mm^3
[1]; day 20
  Tumor volume (mm^3): 30 ± 6 mm^3
[1]; day 27
  Tumor volume (mm^3): 21 ± 5 mm^3
[1]; day 30
  Tumor volume (mm^3): 23 ± 6 mm^3
[1]; mouse, in vivo
  Tolerability / body weight loss: Slight toxicity
[1]; mouse, in vivo, listed as bispecific EGFR/c-Met molecule
  Antitumor activity / response: complete tumor regression (CR) in all mice; also recorded: complete response
[4]
  Tumor growth inhibition: showed the most efficacy
